Measurements reported in US20230407373A1 (priority 2020, published 2023).
Like-named read-outs stand apart in the source and are kept apart here.

Experiments:
HCoV-OC43 gRNA and sgRNA = assay type: binding; settings: for target (unweighted spectral count): OC43 Probe II, infected cells; for target (unweighted spectral count) / target (unweighted spectral count, OC43 Probe II capture): tested against no-probe control; for target (unweighted spectral count, OC43 Probe II) / background (unweighted spectral count, no-probe control): type n_48_v, 48 hpi; for target (unweighted spectral count, OC43 Probe II): OC43 Probe II capture on infected cells; for background (unweighted spectral count, no-probe control): no-probe control on infected cells; for target (spectral count) / background (spectral count): type s_36_m, Probe II; for target (spectral count): HCoV-OC43-infected HCT-8 cells; for background (spectral count): uninfected-probe control; for target (unweighted spectral count, OC43 Probe II capture): FDR<10%
SARS-CoV-2 gRNA = assay type: binding; settings: […]; LC-MS/MS; Probe I sample (first 199 lines of Table 2)
gRNA of HCoV-OC43 = assay type: binding; settings: for target (spectral count) / background (spectral count): type g_36_m, 36 hpi, Probe I; for target (spectral count): HCoV-OC43-infected HCT-8 cells; for background (spectral count): uninfected-probe control; for target (spectral count, OC43 Probe I RNP capture) / background (spectral count, no-probe control): type n_48_v: 48 hours post-infection; for target (spectral count, OC43 Probe I RNP capture): infected cells, unweighted spectral count; for background (spectral count, no-probe control): no-probe control on infected cells
SARS-CoV-2 = assay type: cell-based; settings: Calu-3 cells, 50 nM siRNA, RT-qPCR, relative to siNC
[1] = tested on: SARS-CoV-2 gRNA and sgRNAs; assay type: binding; settings: for target (unweighted spectral count in RNP capture): Probe II capture, LC-MS/MS LFQ; for background (unweighted spectral count in control): no-probe control pull-down, used as background for Probe II

Row | Molecule | target (unweighted spectral count) (HCoV-OC43 gRNA and sgRNA; 12 hpi (type n_12_v)) | target (unweighted spectral count) (HCoV-OC43 gRNA and sgRNA; 24 hpi (type n_24_v)) | target (unweighted spectral count, OC43 Probe II) (HCoV-OC43 gRNA and sgRNA) | background (unweighted spectral count, no-probe control) (HCoV-OC43 gRNA and sgRNA) | target (spectral count) (HCoV-OC43 gRNA and sgRNA; 36 hpi) | background (spectral count) (HCoV-OC43 gRNA and sgRNA; 36 hpi) | target (unweighted spectral count of the protein in the RNP capture) (SARS-CoV-2 gRNA) | target (spectral count) (gRNA of HCoV-OC43) | background (spectral count) (gRNA of HCoV-OC43) | target (spectral count, OC43 Probe I RNP capture) (gRNA of HCoV-OC43) | background (spectral count, no-probe control) (gRNA of HCoV-OC43) | change in viral RNA levels (gRNA, N sgRNA) after siRNA depletion (SARS-CoV-2) | target (unweighted spectral count, OC43 Probe II capture) (HCoV-OC43 gRNA and sgRNA; 36 hpi, type n_36_v) | target (unweighted spectral count in RNP capture) ([1]; […]) | background (unweighted spectral count in control) [1] | target (unweighted spectral count, OC43 Probe II capture) (HCoV-OC43 gRNA and sgRNA; 24 hpi, type n_24_v) | target (unweighted spectral count of the protein in the RNP capture experiment) ([1]; […], LC-MS/MS label-free quantification, probe pool not given) | back-ground (unweighted spectral count of the protein in the control experiment) ([1]; protein background of the control (e.g. no-probe) experiment, […])
1 | HDLBP: host protein, UniProt Q00341 (protein, UniProt Q00341 2-1268, looked up) Vigilin: SSVAVLTQESFAEHRSGLVPQQIKVATLNSEEESDPPTYKDAFPPLPEKAACLESAQEPAGAWGNKIRPIKASVITQVFHVPLEERKYKDMNQFGEGEQAKICLEIMQRTGAHLELSLAKDQGLSIMVSGKLDAVMKARKDIVARLQTQASATVAIPKEHHRFVIGKNGEKLQDLELKTATKIQIPRPDDPSNQIKITGTKEGIEKARHEVLLISAEQDKRAVERLEVEKAFHPFIAGPYNRLVGEIMQETGTRINIPPPSVNRTEIVFTGEKEQLAQAVARIKKIYEEKKKKTTTIAVEVKKSQHKYVIGPKGNSLQEILERTGVSVEIPPSDSISETVILRGEPEKLGQALTEVYAKANSFTVSSVAAPSWLHRFIIGKKGQNLAKITQQMPKVHIEFTEGEDKITLEGPTEDVNVAQEQIEGMVKDLINRMDYVEINIDHKFHRHLIGKSGANINRIKDQYKVSVRIPPDSEKSNLIRIEGDPQGVQQAKRELLELASRMENERTKDLIIEQRFHRTIIGQKGERIREIRDKFPEVIINFPDPAQKSDIVQLRGPKNEVEKCTKYMQKMVADLVENSYSISVPIFKQFHKNIIGKGGANIKKIREESNTKIDLPAENSNSETIIITGKRANCEAARSRILSIQKDLANIAEVEVSIPAKLHNSLIGTKGRLIRSIMEECGGVHIHFPVEGSGSDTVVIRGPSSDVEKAKKQLLHLAEEKQTKSFTVDIRAKPEYHKFLIGKGGGKIRKVRDSTGARVIFPAAEDKDQDLITIIGKEDAVREAQKELEALIQNLDNVVEDSMLVDPKHHRHFVIRRGQVLREIAEEYGGVMVSFPRSGTQSDKVTLKGAKDCVEAAKKRIQEIIEDLEAQVTLECAIPQKFHRSVMGPKGSRIQQITRDFSVQIKFPDREENAVHSTEPVVQENGDEAGEGREAKDCDPGSPRRCDIIIISGRKEKCEAAKEALEALVPVTIEVEVPFDLHRYVIGQKGSGIRKMMDEFEVNIHVPAPELQSDIIAITGLAANLDRAKAGLLERVKELQAEQEDRALRSFKLSVTVDPKYHPKIIGRKGAVITQIRLEHDVNIQFPDKDDGNQPQDQITITGYEKNTEAARDAILRIVGELEQMVSEDVPLDHRVHARIIGARGKAIRKIMDEFKVDIRFPQSGAPDPNCVTVTGLPENVEEAIDHILNLEEEYLADVVDSEALQVYMKPPAHEEAKAPSRGFVVRDAPWTASSSEKAPDMSSSEEFPSFGAQVAPKTLPWGPKR | 11 | 24 | 50 | 2 | 36 | 1 | 23 | 26 | 3 | 16 | 2 | increased the viral RNA levels | – | – | – | – | – | –
2 | ILF3: host protein, UniProt Q12906 (protein, UniProt Q12906 1-894, looked up) Interleukin enhancer-binding …: MRPMRIFVNDDRHVMAKHSSVYPTQEELEAVQNMVSHTERALKAVSDWIDEQEKGSSEQAESDNMDVPPEDDSKEGAGEQKTEHMTRTLRGVMRVGLVAKGLLLKGDLDLELVLLCKEKPTTALLDKVADNLAIQLAAVTEDKYEILQSVDDAAIVIKNTKEPPLSLTIHLTSPVVREEMEKVLAGETLSVNDPPDVLDRQKCLAALASLRHAKWFQARANGLKSCVIVIRVLRDLCTRVPTWGPLRGWPLELLCEKSIGTANRPMGAGEALRRVLECLASGIVMPDGSGIYDPCEKEATDAIGHLDRQQREDITQSAQHALRLAAFGQLHKVLGMDPLPSKMPKKPKNENPVDYTVQIPPSTTYAITPMKRPMEEDGEEKSPSKKKKKIQKKEEKAEPPQAMNALMRLNQLKPGLQYKLVSQTGPVHAPIFTMSVEVDGNSFEASGPSKKTAKLHVAVKVLQDMGLPTGAEGRDSSKGEDSAEETEAKPAVVAPAPVVEAVSTPSAAFPSDATAEQGPILTKHGKNPVMELNEKRRGLKYELISETGGSHDKRFVMEVEVDGQKFQGAGSNKKVAKAYAALAALEKLFPDTPLALDANKKKRAPVPVRGGPKFAAKPHNPGFGMGGPMHNEVPPPPNLRGRGRGGSIRGRGRGRGFGGANHGGYMNAGAGYGSYGYGGNSATAGYSQFYSNGGHSGNASGGGGGGGGGSSGYGSYYQGDNYNSPVPPKHAGKKQPHGGQQKPSYGSGYQSHQGQQQSYNQSPYSNYGPPQGKQKGYNHGQGSYSYSNSYNSPGGGGGSDYNYESKFNYSGSGGRSGGNSYGSGGASYNPGSHGGYGGGSGGGSSYQGKQGGYSQSNYNSPGSGQNYSGPPSSYQSSQGGYGRNADHSMNYQYR | 7 | 14 | 36 | 2 | 31 | 3 | 15 | 39 | 3 | 38 | 2 | – | 31 | 15 | 1 | – | – | –
3 | SAFB: host protein, UniProt Q15424 (protein, UniProt Q15424 2-915, looked up) Scaffold attachment factor B1: AETLSGLGDSGAAGAAALSSASSETGTRRLSDLRVIDLRAELRKRNVDSSGNKSVLMERLKKAIEDEGGNPDEIEITSEGNKKTSKRSSKGRKPEEEGVEDNGLEENSGDGQEDVETSLENLQDIDIMDISVLDEAEIDNGSVADCVEDDDADNLQESLSDSRELVEGEMKELPEQLQEHAIEDKETINNLDTSSSDFTILQEIEEPSLEPENEKILDILGETCKSEPVKEESSELEQPFAQDTSSVGPDRKLAEEEDLFDSAHPEEGDLDLASESTAHAQSSKADSLLAVVKREPAEQPGDGERTDCEPVGLEPAVEQSSAASELAEASSEELAEAPTEAPSPEARDSKEDGRKFDFDACNEVPPAPKESSTSEGADQKMSSPEDDSDTKRLSKEEKGRSSCGRNFWVSGLSSTTRATDLKNLFSKYGKVVGAKVVTNARSPGARCYGFVTMSTAEEATKCINHLHKTELHGKMISVEKAKNEPVGKKTSDKRDSDGKKEKSSNSDRSTNLKRDDKCDRKDDAKKGDDGSGEKSKDQDDQKPGPSERSRATKSGSRGTERTVVMDKSKGVPVISVKTSGSKERASKSQDRKSASREKRSVVSFDKVKEPRKSRDSESHSRVRERSEREQRMQAQWEREERERLEIARERLAFQRQRLERERMERERLERERMHVEHERRREQERIHREREELRRQQELRYEQERRPAVRRPYDLDRRDDAYWPEAKRAALDERYHSDFNRQDRFHDFDHRDRGRYPDHSVDRREGSRSMMGEREGQHYPERHGGPERHGRDSRDGWGGYGSDKRMSEGRGLPPPPRRDWGDHGRREDDRSWQGTADGGMMDRDHKRWQGGERSMSGHSGPGHMMNRGGMSGRGSFAPGGASRGHPIPHGGMQGGFGGQSRGSRPSDARFTRRY | – | – | 9 | 1 | 7 | 1 | 20 | – | – | 11 | 1 | – | 7 | 11 | 1 | – | – | –
4 | SSBP1 (protein, UniProt Q04837 17-148, looked up) Single-stranded DNA-binding …: ESETTTSLVLERSLNRVHLLGRVGQDPVLRQVEGKNPVTIFSLATNEMWRSGDSEVYQLGDVSQKTTWHRISVFRPGLRDVAYQYVKKGSRIYLEGKIDYGEYMDKNNVRRQATTIIADNIIFLSDQTKEKE | 44 | 25 | 14 | 3 | – | – | 14 | – | – | 16 | 3 | – | 12 | 7 | 1 | – | – | –
5 | SF1: host protein, UniProt Q15637 (protein, UniProt Q15637 2-639, looked up) Splicing factor 1: ATGANATPLDFPSKKRKRSRWNQDTMEQKTVIPGMPTVIPPGLTREQERAYIVQLQIEDLTRKLRTGDLGIPPNPEDRSPSPEPIYNSEGKRLNTREFRTRKKLEEERHNLITEMVALNPDFKPPADYKPPATRVSDKVMIPQDEYPEINFVGLLIGPRGNTLKNIEKECNAKIMIRGKGSVKEGKVGRKDGQMLPGEDEPLHALVTANTMENVKKAVEQIRNILKQGIETPEDQNDLRKMQLRELARLNGTLREDDNRILRPWQSSETRSITNTTVCTKCGGAGHIASDCKFQRPGDPQSAQDKARMDKEYLSLMAELGEAPVPASVGSTSGPATTPLASAPRPAAPANNPPPPSLMSTTQSRPPWMNSGPSESRPYHGMHGGGPGGPGGGPHSFPHPLPSLTGGHGGHPMQHNPNGPPPPWMQPPPPPMNQGPHPPGHHGPPPMDQYLGSTPVGSGVYRLHQGKGMMPPPPMGMMPPPPPPPSGQPPPPPSGPLPPWQQQQQQPPPPPPPSSSMASSTPLPWQQNTTTTTTSAGTGSIPPWQQQQAAAAASPGAPQMQGNPTMVPLPPGVQPPLPPGAPPPPPPPPPGSAGMMYAPPPPPPPPMDPSNFVTMMGMGVAGMPPFGMPPAPPPPPPQN | – | – | – | – | 8 | 1 | 17 | 12 | 2 | 12 | 1 | – | 8 | – | – | 4 | 6 | 1
